Source: patent US7183387 (Genentech, dated 2007)

T1: human FcγRIIA-R131 α subunit extracellular domain-6His-GST fusion (human, UniProt P12318 34-217)
T1 construct: also called FcγRIIA-Arg131; not shown: glutathione S-transferase (GST)
T1 sequence: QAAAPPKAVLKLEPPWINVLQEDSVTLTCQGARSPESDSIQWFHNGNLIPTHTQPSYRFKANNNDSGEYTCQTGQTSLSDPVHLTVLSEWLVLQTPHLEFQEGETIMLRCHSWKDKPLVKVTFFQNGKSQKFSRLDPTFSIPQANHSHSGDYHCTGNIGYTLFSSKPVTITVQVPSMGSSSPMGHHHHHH

T2: human FcγRIIB α subunit extracellular domain-6His-GST fusion (human, UniProt P31994 43-217)
T2 construct: not shown: glutathione S-transferase (GST)
T2 sequence: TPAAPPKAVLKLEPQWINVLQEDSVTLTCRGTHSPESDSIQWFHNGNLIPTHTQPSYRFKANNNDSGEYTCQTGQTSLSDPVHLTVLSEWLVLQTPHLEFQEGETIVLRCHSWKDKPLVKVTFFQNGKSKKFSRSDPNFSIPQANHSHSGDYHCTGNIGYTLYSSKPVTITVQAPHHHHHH

B1: E27 IgG1 variant H268(281)N (antibody)
heavy: not shown
light: DIQLTQSPSSLSASVGDRVTITCRASKPVDGEGDSYLNWYQQKPGKAPKLLIYAASYLESGVPSRFSGSGSGTDFTLTISSLQPEDFATYYCQQSHEDPYTFGQGTKVEIKRTVAAPSVFIFPPSDEQLKSGTASVVCLLNNFYPREAKVQWKVDNALQSGNSQESVTEQDSKDSTYSLSSTLTLSKADYEKHKVYACEVTHQGLSSPVTKSFNRGEC
notes: also called IG2 84
B2: E27 IgG1 variant N276(289)Q (antibody)
heavy: not shown
light: B1 light
notes: also called IG2 233
B3: E27 IgG1 variant K320(339)M (antibody)
heavy: not shown
light: B1 light
notes: also called IG2 202
B4: E27 IgG1 variant K290(307)G (antibody)
heavy: not shown
light: B1 light
notes: also called IG2 177
B5: E27 IgG1 variant N286(303)S (antibody)
heavy: not shown
light: B1 light
notes: also called IG2 237
B6: E27 IgG1 variant K322(341)N (antibody)
heavy: not shown
light: B1 light
notes: also called IG2 207
B7: E27 IgG1 variant K290(307)S (antibody)
heavy: not shown
light: B1 light
notes: also called IG2 75
B8: E27 IgG1 variant K326(345)E (antibody)
heavy: not shown
light: B1 light
notes: also called IG2 212
B9: E27 IgG1 variant K334(353)V (antibody)
heavy: not shown
light: B1 light
notes: also called IG2 220
B10: E27 IgG1 variant K326(345)D (antibody)
heavy: not shown
light: B1 light
notes: also called IG2 211
B11: E27 IgG1 variant K334(353)Q (antibody)
heavy: not shown
light: B1 light
B12: E27 IgG1 variant K338(358)M (antibody)
heavy: not shown
light: B1 light
B13: E27 IgG1 variant H268(281)Y (antibody)
heavy: not shown
light: B1 light
notes: also called IG2 87
B14: E27 IgG1 variant K320(339)E (antibody)
heavy: not shown
light: B1 light
notes: also called IG2 205
B15: E27 IgG1 variant K334(353)D (antibody)
heavy: not shown
light: B1 light
notes: also called IG2 140
B16: E27 IgG1 variant K322(341)R (antibody)
heavy: not shown
light: B1 light
notes: also called IG2 155
B17: E27 IgG1 variant K320(339)Q (antibody)
heavy: not shown
light: B1 light
notes: also called IG2 204
B18: E27 IgG1 variant K290(307)Q (antibody)
heavy: not shown
light: B1 light
notes: also called IG2 73
B19: E27 IgG1 variant K334(353)S (antibody)
heavy: not shown
light: B1 light
B20: E27 IgG1 variant K334(353)N (antibody)
heavy: not shown
light: B1 light
B21: E27 IgG1 variant K274(287)Q (antibody)
heavy: not shown
light: B1 light
B22: E27 IgG1 variant N286(303)D (antibody)
heavy: not shown
light: B1 light
notes: also called IG2 238
B23: E27 IgG1 variant K326(345)Q (antibody)
heavy: not shown
light: B1 light
notes: also called IG2 210
B24: E27 IgG1 variant K326(345)S (antibody)
heavy: not shown
light: B1 light
B25: E27 IgG1 variant K334(353)E (antibody)
heavy: not shown
light: B1 light
B26: E27 IgG1 variant K334(353)R (antibody)
heavy: not shown
light: B1 light
B27: E27 IgG1 variant K326(345)N (antibody)
heavy: not shown
light: B1 light
notes: also called IG2 209
B28: E27 IgG1 variant N276(289)K (antibody)
heavy: not shown
light: B1 light
B29: E27 IgG1 variant K322(341)E (antibody)
heavy: not shown
light: B1 light
B30: E27 IgG1 variant N286(303)Q (antibody)
heavy: not shown
light: B1 light
notes: also called IG2 23
B31: E27 IgG1 variant H268(281)S (antibody)
heavy: not shown
light: B1 light
notes: also called IG2 85
B32: E27 IgG1 variant K334(353)L (antibody)
heavy: not shown
light: B1 light
notes: also called IG2 221
B33: E27 IgG1 variant K322(341)Q (antibody)
heavy: not shown
light: B1 light

These binders were tested against T1, human FcγRIIA-R131 α subunit … (assay: ELISA, IgG:IgE hexamers on receptor-GST).

Binder	ratio to native IgG1
B1	1.33
B2	1.09
B3	1.34
B4	1.07
B5	1.72
B6	0.57
B7	1.27
B8	1.34
B9	1.13
B10	1.68
B11	1.08
B12	0.99
B13	1.19
B14	1.29
B15	0.51
B16	0.87
B17	1.23

Binder	ratio to native IgG1
B18	1.17
B19	1.01
B20	1.16
B21	0.86
B22	1.41
B23	1.36
B24	1.44
B25	0.74
B26	1.15
B27	1.04
B28	0.81
B29	1.38
B30	1.52
B31	1.35
B32	1.05
B33	0.87

What follows are binders tested against T3, human FcγRIIIA-F158 α subunit extracellular domain-6His-GST fusion (human, UniProt P08637 17-208) (assay: ELISA, IgG:IgE hexamers on receptor-GST).
T3 construct: also called FcγRIIIA-Phe158; not shown: glutathione S-transferase (GST)
T3 sequence (P08637 other isoform, or with tags, fused parts or gaps, form in doubt): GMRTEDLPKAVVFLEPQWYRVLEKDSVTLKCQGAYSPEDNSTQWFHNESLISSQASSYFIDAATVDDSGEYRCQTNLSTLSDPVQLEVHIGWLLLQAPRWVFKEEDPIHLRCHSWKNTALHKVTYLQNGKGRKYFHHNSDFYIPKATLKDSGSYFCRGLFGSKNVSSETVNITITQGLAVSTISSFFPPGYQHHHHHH

Binder	ratio to native IgG1
B1	0.56
B2	0.91
B3	1.27
B4	1.23
B5	1.32
B6	0.04
B7	1.26
B8	1.26
B9	1.34
B10	1.36
B11	1.23
B12	0.49
B13	0.76
B14	1.12
B15	1.13
B16	0.92
B17	1.17

Binder	ratio to native IgG1
B18	1.4
B19	1.19
B20	1.11
B21	0.62
B22	0.98
B23	1.15
B24	1.37
B25	1.3
B26	0.68
B27	1.27
B28	0.61
B29	0.81
B30	0.96
B31	0.81
B32	1.38
B33	0.78

These binders were tested against T2, human FcγRIIB α subunit extracellular … (assay: ELISA, IgG:IgE hexamers on receptor-GST).

Binder	ratio to native IgG1
B1	1.41
B2	0.79
B3	1.4
B4	1.21
B5	1.38
B6	0.36
B7	1.34
B8	1.47
B9	1.09
B10	2.01
B11	1.1
B12	0.93
B13	1.29
B14	1.34
B15	0.4
B16	0.87
B17	1.12

Binder	ratio to native IgG1
B18	1.26
B19	1.03
B20	1.29
B21	0.94
B22	1.23
B23	1.41
B24	1.62
B25	0.72
B26	1.33
B27	1
B28	0.77
B29	1.34
B30	1.13
B31	1.38
B32	1.09
B33	0.92
